From article PMC12248280 come the findings set out here.

The term Kd denotes the equilibrium constant for the complex coming apart.

This test addresses hDPP4-Fc (human DPP4 residues 39 to 766 fused at its C terminus to the Fc domain of human IgG) (human) (UniProt P27487). Nature of the test: BLI.
UniProt P27487, sequence (P27487 39-766): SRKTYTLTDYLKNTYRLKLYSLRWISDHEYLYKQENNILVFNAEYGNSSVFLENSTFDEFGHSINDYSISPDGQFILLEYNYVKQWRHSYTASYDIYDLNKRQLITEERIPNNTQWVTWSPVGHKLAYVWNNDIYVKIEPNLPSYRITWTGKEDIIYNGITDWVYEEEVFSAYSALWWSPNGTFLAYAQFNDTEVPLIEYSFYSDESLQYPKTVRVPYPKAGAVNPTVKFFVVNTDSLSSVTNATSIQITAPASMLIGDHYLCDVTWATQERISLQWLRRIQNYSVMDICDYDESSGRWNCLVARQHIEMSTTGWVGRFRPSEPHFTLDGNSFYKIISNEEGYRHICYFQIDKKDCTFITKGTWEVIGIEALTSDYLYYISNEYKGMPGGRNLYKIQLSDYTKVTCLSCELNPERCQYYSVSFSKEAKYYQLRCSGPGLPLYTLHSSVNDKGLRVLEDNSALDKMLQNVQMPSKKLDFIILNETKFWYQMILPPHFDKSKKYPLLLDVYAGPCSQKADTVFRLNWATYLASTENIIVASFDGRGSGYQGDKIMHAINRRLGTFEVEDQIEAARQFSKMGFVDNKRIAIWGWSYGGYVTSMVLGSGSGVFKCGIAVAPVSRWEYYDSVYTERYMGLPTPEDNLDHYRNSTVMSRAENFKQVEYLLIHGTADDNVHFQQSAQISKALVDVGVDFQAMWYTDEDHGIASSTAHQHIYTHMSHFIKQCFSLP

Consider “GD-BatCoV-S (GD-BatCoV S-trimer, GD-BatCoV-S-6P) (domain or fragment)”, for which the dissociation constant (Kd) was 5.3 nM. This counts as single-digit nanomolar.
